Test results: the supplement of paper PMC9112550, “Optimization of the antimicrobial peptide Bac7 by deep mutational scanning” (BMC Biology, 2022)

These sequences were tested on Escherichia coli TOP10 (assay: shrunken log2 fold change of peptide-encoding DNA abundance (4.5 h post-induction vs induction); higher = less antimicrobial activity (less host growth inhibition)). Details: time post-induction: 4.5 h; library: site-saturation at positions 5, 18, 19, 20.
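Note: peptides expressed intracellularly from a pBAD plasmid library in pooled LB shake-flask culture, induced with 0.3% L-arabinose, DNA abundance read by NGS, three biological replicates, DESeq2 with apeglm shrinkage.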

Row | Sequence | shrunken log2 fold change
1 | RRIRTRPPRLPRPRPRPNERPRP | -0.0561
2 | RRIRCRPPRLPRPRPRPYKEPRP | 0.0662
3 | RRIRARPPRLPRPRPRPDQIPRP | 0.327
4 | RRIRGRPPRLPRPRPRPIWIPRP | 0.0517
5 | RRIRGRPPRLPRPRPRPTYLPRP | 0.132
6 | RRIRLRPPRLPRPRPRPLPGPRP | 0.781
7 | RRIRQRPPRLPRPRPRPHQGPRP | 0.0866
8 | RRIRFRPPRLPRPRPRPHCHPRP | -0.59
9 | RRIRNRPPRLPRPRPRPMLCPRP | 0.0164
10 | RRIRPRPPRLPRPRPRPTARPRP | 0.352
11 | RRIRDRPPRLPRPRPRPRAAPRP | 0.609
12 | RRIRMRPPRLPRPRPRPVREPRP | 1.19
13 | RRIRTRPPRLPRPRPRPECAPRP | 0.459
14 | RRIRFRPPRLPRPRPRPFIKPRP | -0.648
15 | RRIRKRPPRLPRPRPRPEPYPRP | -0.0587
16 | RRIRPRPPRLPRPRPRPWPQPRP | 0.0953
17 | RRIRERPPRLPRPRPRPYHKPRP | -0.804
18 | RRIRVRPPRLPRPRPRPCEFPRP | -0.242
19 | RRIRGRPPRLPRPRPRPYMMPRP | -0.232
20 | RRIRFRPPRLPRPRPRPNNEPRP | -0.265
21 | RRIRIRPPRLPRPRPRPSFYPRP | -0.776
22 | RRIRERPPRLPRPRPRPPCKPRP | -0.208
23 | RRIRWRPPRLPRPRPRPWWYPRP | -0.203
24 | RRIRSRPPRLPRPRPRPMKCPRP | 0.235
25 | RRIRLRPPRLPRPRPRPLANPRP | -0.00613

Row | Sequence | shrunken log2 fold change
26 | RRIRYRPPRLPRPRPRPCHVPRP | -0.0447
27 | RRIRRRPPRLPRPRPRPEMWPRP | 1.14
28 | RRIRYRPPRLPRPRPRPKVGPRP | 0.0316
29 | RRIRRRPPRLPRPRPRPKQMPRP | 0.29
30 | RRIRVRPPRLPRPRPRPKLYPRP | -0.0874
31 | RRIRERPPRLPRPRPRPTSLPRP | -0.647
32 | RRIRIRPPRLPRPRPRPDEKPRP | -0.0762
33 | RRIRWRPPRLPRPRPRPWKAPRP | -0.00884
34 | RRIRPRPPRLPRPRPRPAPSPRP | 0.51
35 | RRIRARPPRLPRPRPRPHDIPRP | -0.08
36 | RRIRARPPRLPRPRPRPTAHPRP | 0.485
37 | RRIRRRPPRLPRPRPRPNPFPRP | 0.125
38 | RRIRERPPRLPRPRPRPIWIPRP | -0.222
39 | RRIRGRPPRLPRPRPRPGNKPRP | -0.216
40 | RRIRERPPRLPRPRPRPADAPRP | 0.117
41 | RRIRRRPPRLPRPRPRPITIPRP | 0.035
42 | RRIRDRPPRLPRPRPRPAVRPRP | -0.0321
43 | RRIRFRPPRLPRPRPRPRVFPRP | 0.232
44 | RRIRLRPPRLPRPRPRPFHHPRP | -0.147
45 | RRIRDRPPRLPRPRPRPTQVPRP | 0.0721
46 | RRIRLRPPRLPRPRPRPQMMPRP | -0.371
47 | RRIRARPPRLPRPRPRPVHKPRP | 0.2
48 | RRIRSRPPRLPRPRPRPHSIPRP | -0.248
49 | RRIRMRPPRLPRPRPRPGPWPRP | 0.89
50 | RRIRTRPPRLPRPRPRPMAYPRP | 0.0358

Row | Sequence | shrunken log2 fold change
51 | RRIRTRPPRLPRPRPRPFQSPRP | 0.00942
52 | RRIRKRPPRLPRPRPRPNMVPRP | 0.114
53 | RRIRSRPPRLPRPRPRPHAFPRP | -1.44
54 | RRIRQRPPRLPRPRPRPAAKPRP | -0.0272
55 | RRIRVRPPRLPRPRPRPNCKPRP | -0.368
56 | RRIRRRPPRLPRPRPRPVKDPRP | -0.0534
57 | RRIRGRPPRLPRPRPRPETYPRP | 0.569
58 | RRIRNRPPRLPRPRPRPGHDPRP | 0.0277
59 | RRIRHRPPRLPRPRPRPDGNPRP | -0.105
60 | RRIRNRPPRLPRPRPRPEFYPRP | -0.243
61 | RRIRMRPPRLPRPRPRPFMRPRP | 0.345
62 | RRIRHRPPRLPRPRPRPAQFPRP | -0.0111
63 | RRIRWRPPRLPRPRPRPIKTPRP | 0.00902
64 | RRIRQRPPRLPRPRPRPAPKPRP | 0.148
65 | RRIRIRPPRLPRPRPRPLFGPRP | -0.102
66 | RRIRFRPPRLPRPRPRPNSDPRP | -0.209
67 | RRIRERPPRLPRPRPRPLYHPRP | -0.419
68 | RRIRDRPPRLPRPRPRPHKCPRP | -0.372
69 | RRIRSRPPRLPRPRPRPDRSPRP | -0.0187
70 | RRIRNRPPRLPRPRPRPGEWPRP | 0.00667
71 | RRIRPRPPRLPRPRPRPKYQPRP | -0.411
72 | RRIRCRPPRLPRPRPRPQYQPRP | -0.697
73 | RRIRRRPPRLPRPRPRPKHEPRP | 0.0619
74 | RRIRNRPPRLPRPRPRPVPGPRP | 0.176
75 | RRIRERPPRLPRPRPRPLEDPRP | -0.157

Row | Sequence | shrunken log2 fold change
76 | RRIRRRPPRLPRPRPRPAQPPRP | 0.958
77 | RRIRKRPPRLPRPRPRPVYDPRP | 0.0473
78 | RRIRPRPPRLPRPRPRPPALPRP | 0.388
79 | RRIRERPPRLPRPRPRPSVKPRP | -0.625
80 | RRIRERPPRLPRPRPRPVHTPRP | -0.00346
81 | RRIRERPPRLPRPRPRPEYPPRP | -0.162
82 | RRIRHRPPRLPRPRPRPIFRPRP | -0.173
83 | RRIRFRPPRLPRPRPRPAYMPRP | -0.564
84 | RRIRERPPRLPRPRPRPYLNPRP | -0.326
85 | RRIRIRPPRLPRPRPRPIGTPRP | -0.792
86 | RRIRHRPPRLPRPRPRPNLLPRP | -0.13
87 | RRIRRRPPRLPRPRPRPHYYPRP | -0.0297
88 | RRIRVRPPRLPRPRPRPTAMPRP | 0.0686
89 | RRIRPRPPRLPRPRPRPQQVPRP | 0.14
90 | RRIRVRPPRLPRPRPRPQREPRP | -0.0361
91 | RRIRTRPPRLPRPRPRPVSGPRP | -0.0612
92 | RRIRIRPPRLPRPRPRPRIGPRP | -0.0469
93 | RRIRLRPPRLPRPRPRPTEYPRP | -0.0401
94 | RRIRWRPPRLPRPRPRPLGRPRP | 0.424
95 | RRIRFRPPRLPRPRPRPYDTPRP | -0.106
96 | RRIRQRPPRLPRPRPRPFNYPRP | -0.304
97 | RRIRNRPPRLPRPRPRPEMPPRP | -0.0738
98 | RRIRYRPPRLPRPRPRPFIWPRP | -0.2
99 | RRIRVRPPRLPRPRPRPTVDPRP | 0.177
100 | RRIRARPPRLPRPRPRPFPRPRP | 0.0695

Row | Sequence | shrunken log2 fold change
101 | RRIRKRPPRLPRPRPRPMEKPRP | -0.0153
102 | RRIRNRPPRLPRPRPRPERNPRP | -0.0623
103 | RRIRMRPPRLPRPRPRPYFCPRP | -0.352
104 | RRIRLRPPRLPRPRPRPVYIPRP | -0.258
105 | RRIRERPPRLPRPRPRPIIWPRP | -0.204
106 | RRIRKRPPRLPRPRPRPMSNPRP | -0.00773
107 | RRIRFRPPRLPRPRPRPMGGPRP | -0.166
108 | RRIRWRPPRLPRPRPRPQQHPRP | -0.056
109 | RRIRHRPPRLPRPRPRPRCLPRP | -0.169
110 | RRIRIRPPRLPRPRPRPWNWPRP | 0.0631
111 | RRIRFRPPRLPRPRPRPHEAPRP | -0.377
112 | RRIRVRPPRLPRPRPRPQVDPRP | 0.00887
113 | RRIRARPPRLPRPRPRPIRVPRP | 0.125
114 | RRIRVRPPRLPRPRPRPIVCPRP | -0.0744
115 | RRIRTRPPRLPRPRPRPHKPPRP | -0.0565
116 | RRIRSRPPRLPRPRPRPEGFPRP | 0.272
117 | RRIRCRPPRLPRPRPRPMAMPRP | 0.106
118 | RRIRMRPPRLPRPRPRPNIHPRP | -0.144
119 | RRIRGRPPRLPRPRPRPWSHPRP | -0.155
120 | RRIRSRPPRLPRPRPRPNPDPRP | -0.123
121 | RRIRIRPPRLPRPRPRPTEKPRP | 0.0176
122 | RRIRPRPPRLPRPRPRPVSPPRP | 0.0647
123 | RRIRPRPPRLPRPRPRPQYRPRP | -0.105
124 | RRIRKRPPRLPRPRPRPINGPRP | 0.00103
125 | RRIRTRPPRLPRPRPRPDFQPRP | 0.00444

Row | Sequence | shrunken log2 fold change
126 | RRIRLRPPRLPRPRPRPVQGPRP | -0.01
127 | RRIRDRPPRLPRPRPRPYDFPRP | -0.178
128 | RRIRTRPPRLPRPRPRPGYKPRP | -0.275
129 | RRIRDRPPRLPRPRPRPLGWPRP | 0.366
130 | RRIRLRPPRLPRPRPRPPHCPRP | 0.177
131 | RRIRERPPRLPRPRPRPVGKPRP | -0.309
132 | RRIRHRPPRLPRPRPRPKDRPRP | 0.00902
133 | RRIRLRPPRLPRPRPRPGISPRP | -0.00752
134 | RRIRYRPPRLPRPRPRPRALPRP | 0.0114
135 | RRIRRRPPRLPRPRPRPLQTPRP | 1.59
136 | RRIRERPPRLPRPRPRPGTVPRP | -0.973
137 | RRIRQRPPRLPRPRPRPMDWPRP | 0.0912
138 | RRIRKRPPRLPRPRPRPIMMPRP | -0.0529
139 | RRIRHRPPRLPRPRPRPDAQPRP | 0.0391
140 | RRIRNRPPRLPRPRPRPANYPRP | -0.0161
141 | RRIRRRPPRLPRPRPRPRASPRP | 0.527
142 | RRIRLRPPRLPRPRPRPLDGPRP | -0.0562
143 | RRIRERPPRLPRPRPRPKWEPRP | 0.0179
144 | RRIRFRPPRLPRPRPRPYFCPRP | -1.05
145 | RRIRDRPPRLPRPRPRPQHTPRP | -0.403
146 | RRIRNRPPRLPRPRPRPTQTPRP | -0.0444
147 | RRIRGRPPRLPRPRPRPYWEPRP | -0.0842
148 | RRIRMRPPRLPRPRPRPQEQPRP | 0.186
149 | RRIRNRPPRLPRPRPRPYHNPRP | -0.275
150 | RRIRTRPPRLPRPRPRPCGRPRP | 0.155
